Source: IntAct's records for PubMed 15078334

B1: Guanine nucleotide-binding protein alpha-1 subunit (Oryza sativa subsp. japonica (Rice)), Q0DJ33 (parent)
chain: MGSSCSRSHSLSEAETTKNAKSADIDRRILQETKAEQHIHKLLLLGAGESGKSTIFKQIKLLFQTGFDEAELRSYTSVIHANVYQTIKILYEGAKELSQVESDSSKYVISPDNQEIGEKLSDIDGRLDYPLLNKELVLDVKRLWQDPAIQETYLRGSILQLPDCAQYFMENLDRLAEAGYVPTKEDVLYARVRTNGVVQIQFSPVGENKRGGEVYRLYDVGGQRNERRKWIHLFEGVNAVIFCAAISEYDQMLFEDETKNRMMETKELFDWVLKQRCFEKTSFILFLNKFDIFEKKIQKVPLSVCEWFKDYQPIAPGKQEVEHAYEFVKKKFEELYFQSSKPDRVDRVFKIYRTTALDQKLVKKTFKLIDESMRRSREGT
partner: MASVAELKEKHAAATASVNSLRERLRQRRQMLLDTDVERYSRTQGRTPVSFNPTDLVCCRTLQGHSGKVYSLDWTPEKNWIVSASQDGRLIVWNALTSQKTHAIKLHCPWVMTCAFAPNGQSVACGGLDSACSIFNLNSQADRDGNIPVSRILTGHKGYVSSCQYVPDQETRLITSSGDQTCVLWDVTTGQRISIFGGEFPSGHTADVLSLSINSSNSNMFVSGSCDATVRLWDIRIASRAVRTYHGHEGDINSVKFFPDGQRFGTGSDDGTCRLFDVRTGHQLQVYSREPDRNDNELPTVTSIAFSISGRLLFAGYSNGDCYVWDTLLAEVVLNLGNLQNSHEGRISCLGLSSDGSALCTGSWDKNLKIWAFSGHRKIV

Variants of: B1
Settings: with gbb_orysj RGB1, Q40687

| Variant | effect of a mutation on the interaction |
| --- | --- |
| Q223L | disrupting interaction |
